Where two headings read alike, the source gives them in different places.
Key:
Assay in all cases: single-molecule TIRF colocalisation with deconvolution of colocalisation times
[1] = target: T1, N-terminally SNAP-tagged human β2-adrenergic receptor (SNAP-β2AR) (human, UniProt P07550 1-413, SNAP-Surface Alexa Fluor 647 on the SNAP-tag)
[2] = target: T1, N-terminally SNAP-tagged human …; remark: listed apart in the source
[3] = target: T1, N-terminally SNAP-tagged human …; remark: listed apart in the source

- koff [1]: 1.34 s⁻¹
- fold increase in kon versus basal [2]: ~1.8 fold
- fold increase in kon versus basal [3]: ~1.4 fold
B1: C-terminally Halo-tagged bovine β-arrestin 2 (βArr2-Halo) (natural protein)
chain: MGEKPGTRVFKKSSPNCKLTVYLGKRDFVDHLDKVDPVDGVVLVDPDYLKDRKVFVTLTCAFRYGREDLDVLGLSFRKDLFIANYQAFPPTPNPPRPPTRLQERLLRKLGQHAHPFFFTIPQNLPCSVTLQPGPEDTGKACGVDFEIRAFCAKSLEEKSHKRNSVRLVIRKVQFAPEKPGPQPSAETTRHFLMSDRSLHLEASLDKELYYHGEPLNVNVHVTNNSTKTVKKIKVSVRQYADICLFSTAQYKCPVAQVEQDDQVSPSSTFCKVYTITPLLSNNREKRGLALDGKLKHEDTNLASSTIVKEGANKEVLGILVSYRVKVKLVVSRGGDVSVELPFVLMHPKPHDHIALPRPQSAAPETDAPVDTNLIEFETNYATDDDIVFEDFARLRLKGLKDEDYDDQFC
modifications: Halo-JF549 on the Halo-tag (single-molecule microscopy); Halo-R110 on the Halo-tag (BRET)

Reference: doi:10.1101/2022.11.15.516577 (bioRxiv, 2022)
